Results reported in article PMC9259484 (Nature, 2022).

Biological target: SARS-CoV-2 Wuhan-Hu-1 receptor binding domain (RBD), Spike (S) protein residues 319-539 (SARS-CoV-2, UniProt P0DTC2)
Assay: BLI
Settings: both partners purified

| Binder | binding result |
| --- | --- |
| C105 (antibody, V domains shown) VH: QVQLVESGGGLIQPGGSLRLSCAASGFTVSSNYMSWVRQAPGKGLEWVSVIYSGGSTYYADSVKGRFTISRDNSKNTLYLQMNSLRAEDTAVYYCARGEGWELPYDYWGQGTLVTVSS VL: QSALTQPPSASGSPGQSVTISCTGTSSDVGGYKYVSWYQQHPGKAPKLMIYEVSKRPSGVPDRFSGSKSGNTASLTVSGLQAEDEADYYCSSYEGSNNFVVFGGGTKLTVL | binds |
| C118 (antibody, V domains shown) VH: QVQLVESGGGVVQPGRSLRLSCAASGFTFSNYAMHWVRQAPGKGLEWVAVISYDGSNKYYADSVKGRFTISRDNSKNTLYLQMNSLRAEDTAIYYCASGYTGYDYFVRGDYYGLDVWGQGTTVTVSS VL: QPVLTQSPSASASLGASVKLTCTLSSGHSSYAIAWHQQQPEKGPRYLMKLNTDGSHSKGDGIPDRFSGSSSGAERYLTISSLQSEDEADYYCQTWGTGILVFGGGTKLTVL | binds |
